Where two headings read alike, the source gives them in different places.
T1: 4H3606-AA
T1 chain: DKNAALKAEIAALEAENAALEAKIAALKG

T2: 4H3631-AA
T2 chain: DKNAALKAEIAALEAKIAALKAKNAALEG

T3: 4H3697-AA
T3 chain: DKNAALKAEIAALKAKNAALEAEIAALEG

T4: 4H3718-AA
T4 chain: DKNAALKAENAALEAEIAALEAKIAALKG

T5: 4H3865-AA
T5 chain: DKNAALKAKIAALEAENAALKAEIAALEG

T6: 4H697-AA
T6 chain: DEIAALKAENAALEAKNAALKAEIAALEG

T7: 4H717-AA
T7 chain: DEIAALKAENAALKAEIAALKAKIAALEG

T8: 4H982-AA
T8 chain: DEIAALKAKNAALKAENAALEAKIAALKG

T9: 4H_APH
T9 chain: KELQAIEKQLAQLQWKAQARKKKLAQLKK

T10: 4H3590-AA
T10 chain: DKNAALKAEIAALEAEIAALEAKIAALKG

T11: 4H570-AA
T11 chain: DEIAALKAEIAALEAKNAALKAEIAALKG

T12: 4H797-AA
T12 chain: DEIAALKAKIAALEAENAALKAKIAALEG

T13: 4H249-AA
T13 chain: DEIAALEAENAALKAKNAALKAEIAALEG

T14: 4H2774-AA
T14 chain: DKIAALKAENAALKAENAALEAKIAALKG

T15: 4H2253-AA
T15 chain: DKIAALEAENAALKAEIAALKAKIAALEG

T16: 4H2330-AA
T16 chain: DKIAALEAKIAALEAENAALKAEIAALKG

T17: 4H3381-AA
T17 chain: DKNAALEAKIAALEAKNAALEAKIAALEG


How the values were obtained:
Assay in all cases: two-hybrid library CCmax;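 further: natural log of median RNA to DNA barcode read ratio; higher means stronger binding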
4H3606-AA = biological target: T1, 4H3606-AA
4H3631-AA = biological target: T2, 4H3631-AA; conditions: mean of both orientations
4H3697-AA = biological target: T3, 4H3697-AA; conditions: mean of both orientations
4H3718-AA = biological target: T4, 4H3718-AA
4H3865-AA = biological target: T5, 4H3865-AA; conditions: mean of both orientations
4H697-AA = biological target: T6, 4H697-AA; conditions: mean of both orientations
4H717-AA = biological target: T7, 4H717-AA; conditions: mean of both orientations
4H982-AA = biological target: T8, 4H982-AA; conditions: mean of both orientations
4H_APH = biological target: T9, 4H_APH
4H_GCN4 = biological target: 4H_GCN4
Sequence of 4H_GCN4 (chain, as listed by the source): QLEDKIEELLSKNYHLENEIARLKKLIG

GCN2_T = biological target: GCN2_T
4H3590-AA = biological target: T10, 4H3590-AA; conditions: mean of both orientations
4H570-AA = biological target: T11, 4H570-AA
4H797-AA = biological target: T12, 4H797-AA; conditions: mean of both orientations
4H249-AA = biological target: T13, 4H249-AA
4H2774-AA = biological target: T14, 4H2774-AA; conditions: mean of both orientations
4H2253-AA = biological target: T15, 4H2253-AA; conditions: mean of both orientations
4H2330-AA = biological target: T16, 4H2330-AA; conditions: mean of both orientations
4H3381-AA = biological target: T17, 4H3381-AA; conditions: mean of both orientations

Binder	interaction score (4H3606-AA; mean of both orientations)	interaction score (4H3631-AA)	interaction score (4H3697-AA)	interaction score (4H3718-AA; mean of both orientations)	interaction score (4H3865-AA)	interaction score (4H697-AA)	interaction score (4H717-AA)	interaction score (4H982-AA)	interaction score (4H_APH; mean of both orientations)	interaction score (4H_GCN4)	interaction score (GCN2_T)	interaction score (4H249-AA; mean of both orientations)	interaction score (4H2774-AA)	further results
DENAALEAKIAALKAKNAALKAEIAALEG [4H1401-AA]	2.07	-1.4	-0.792	0.196	0.227	-1.39	-1.5	-0.483	-1.86	-1.67	-1.62	–	–	–
DKNAALKAEIAALEAENAALEAKIAALKG [4H3606-AA]	–	-0.831	1.42	–	1.86	-0.116	-1.65	0.00779	-1.27	-0.288	-0.266	–	–	interaction score (4H3606-AA): -0.0341; interaction score (4H3718-AA): -1.15; interaction score (4H570-AA): -2.43
DENAALEAENAALKAKIAALKAEIAALEG [4H1257-AA]	–	–	–	–	–	–	0.282	–	-1.94	-2.56	-1.92	-1.46	2.09	interaction score (4H797-AA): -1.57
DKIAALEAEIAALKAKNAALEAKIAALEG [4H2165-AA]	-0.638	–	–	–	–	–	-1.25	–	–	-1.58	-1.41	-1.16	-0.839	interaction score (4H2253-AA): -1.02; interaction score (4H2330-AA): -1.33; interaction score (4H_APH): -1.76
DEIAALEAENAALKAKNAALKAEIAALEG [4H249-AA]	–	–	–	–	–	–	–	–	-1.97	-1.66	-1.96	–	1.92	interaction score (4H249-AA): -0.781; interaction score (4H3381-AA): -1.79

Continued, in another order:

interaction score (4H3606-AA; mean of both orientations)	interaction score (4H3631-AA)	interaction score (4H3697-AA)	interaction score (4H3718-AA; mean of both orientations)	interaction score (4H3865-AA)	interaction score (4H697-AA)	interaction score (4H717-AA)	interaction score (4H982-AA)	interaction score (4H_APH; mean of both orientations)	interaction score (4H_GCN4)	interaction score (GCN2_T)	interaction score (4H249-AA; mean of both orientations)	interaction score (4H2774-AA)	Binder	further results
–	–	–	–	–	–	–	–	-1.67	-1.31	-1.41	–	–	DENAALEAKIAALKAEIAALEAKIAALKG [4H1350-AA]	interaction score (4H3590-AA): 2.09
-0.353	-1.57	-1.83	-1.65	-1.31	-1.65	-1.01	-1.6	–	–	–	–	–	DENAALKAKIAALEAKNAALEAKIAALEG [4H1845-AA]	interaction score (4H797-AA): -0.965
–	0.849	-1.72	0.217	-1.67	-1.68	-1.1	-0.675	–	–	–	–	–	DENAALEAENAALEAEIAALEAEIAALEG [4H1153-AA]	interaction score (4H3606-AA): -0.981
–	–	–	–	–	–	–	–	–	–	–	-2.06	-1.39	DENAALEAEIAALEAKIAALEAKNAALKG [4H1064-AA]	–

Reference: article PMC10397247
